Laboratory results from patent US20250114433A1 (published 2025).
Substitutions are numbered along the chain they refer to.

B1: TCR20 (TCR, V domains shown)
Valpha: DAKTTQPPSMDCAEGRAANLPCNHSTISGNEYVYWYRQIHSQGPQYIIHGLKNNETNEMASLIITEDRKSSTLILPHATLRDTAVYYCIVRLNSGNTPLVFGKGTRLSVIA
Vbeta: EAGVAQSPRYKIIEKRQSVAFWCNPISGHATLYWYQQILGQGPKLLIQFQNNGVVDDSQLPKDRFSAERLKGVDSTLKIQPAKLEDSAVYLCASSPTFPAGDRDTQYFGPGTRLTVL
B2: TCR15 (TCR, V domains shown)
Valpha: QKEVEQNSGPLSVPEGAIASLNCTYSDRGSQSFFWYRQYSGKSPELIMFIYSNGDKEDGRFTAQLNKASQYVSLLIRDSQPSDSATYLCAVNARGNMLTFGGGTRLMVKP
Vbeta: SQTIHQWPATLVQPVGSPLSLECTVEGTSNPNLYWYRQAAGRGLQLLFYSVGIGQISSEVPQNLSASRPQDRQFILSSKKLLLSDSGFYLCAWTLTGFGQPQHFGDGTRLSIL
B3: A11 KRAS TCR_220_12 (TCR, V domains shown)
Valpha: AQSVTQLDSHVSVSEGTPVLLRCNYSSSYSPSLFWYVQHPNKGLQLLLKYTSAATLVKGINGFEAEFKKSETSFHLTKPSAHMSDAAEYFCVVSDMVSGYALNFGKGTSLLVTP
Vbeta: DIYQTPRYLVIGTGKKITLECSQTMGHDKMYWYQQDPGMELHLIHYSYGVNSTEKGDLSSESTVSRIRTEHFPLTLESARPSHTSQYLCASSESLYNEQFFGPGTRLTVL
B4: A11_TCR22 (TCR, V domains shown)
Valpha: QKEVEQDPGPLSVPEGAIVSLNCTYSNSAFQYFMWYRQYSRKGPELLMYTYSSGNKEDGRFTAQVDKSSKYISLFIRDSQPSDSATYLCAMSAGAAGNKLTFGGGTRVLVKP
Vbeta: EADIYQTPRYLVIGTGKKITLECSQTMGHDKMYWYQQDPGMELHLIHYSYGVNSTEKGDLSSESTVSRIRTEHFPLTLESARPSHTSQYLCASSQGLYNEQFFGPGTRLTVL
B5: TCR21 (TCR, V domains shown)
Valpha: B4 Valpha with A93G, A95N, K99M, V108L, L109M
Vbeta: B4 Vbeta with Q95V
B6: A2 KRAS TCR03 (TCR, V domains shown)
Valpha: GEDVEQSLFLSVREGDSSVINCTYTDSSSTYLYWYKQEPGAGLQLLTYIFSNMDMKQDQRLTVLLNKKDKHLSLRIADTQTGDSAIYFCAERTDTDKLIFGTGTRLQVFP
Vbeta: GAGVSQTPSNKVTEKGKYVELRCDPISGHTALYWYRQSLGQGPEFLIYFQGTGAADDSGLPNDRFFAVRPEGSVSTLKIQRTERGDSAVYLCASSPLAANEQFFGPGTRLTVL
B7: A11 KRAS TCR_220_21 (TCR, V domains shown)
Valpha: GEDVEQSLFLSVREGDSSVINCTYTDSSSTYLYWYKQEPGAGLQLLTYIFSNMDMKQDQRLTVLLNKKDKHLSLRIADTQTGDSAIYFCAEPIIGGNTPLVFGKGTRLSVIA
Vbeta: GAGVSQSPRYKVAKRGQDVALRCDPISGHVSLFWYQQALGQGPEFLTYFQNEAQLDKSGLPSDRFFAERPEGSVSTLKIQRTQQEDSAVYLCASSSEGLAGGPTAGELFFGEGSRLTVL
B8: TCR23 (TCR, V domains shown)
Valpha: TQLLEQSPQFLSIQEGENLTVYCNSSSVFSSLQWYRQEPGEGPVLLVTVVTGGEVKKLKRLTFQFGDARKDSSLHITAAQPGDTGLYLCAGVREAGGTSYGKLTFGQGTILTVHP
Vbeta: DAEITQSPRHKITETGRQVTLACHQTWNHNNMFWYRQDLGHGLRLIHYSYGVQDTNKGEVSDGYSVSRSNTEDLPLTLESAASSQTSVYFCASSEYVGAHEQYFGPGTRLTVT
B9: TCR17 (TCR, V domains shown)
Valpha: KVTQAQTEISVVEKEDVTLDCVYETRDTTYYLFWYKQPPSGELVFLIRRNSFDEQNEISGRYSWNFQKSTSSFNFTITASQVVDSAVYFCALSEVHASGGSYIPTFGRGTSLIVHP
Vbeta: DVKVTQSSRYLVKRTGEKVFLECVQDMDHENMFWYRQDPGLGLRLIYFSYDVKMKEKGDIPEGYSVSREKKERFSLILESASTNQTSMYLCASSLGAGQHNSPLHFGNGTRLTVT
B10: A11_TCR16 (TCR, V domains shown)
Valpha: KDQVFQPSTVASSEGAVVEIFCNHSVSNAYNFFWYLHFPGCAPRLLVKGSKPSQQGRYNMTYERFSSSLLILQVREADAAVYYCVLNRDDKIIFGKGTRLHILP
Vbeta: DAGVIQSPRHEVTEMGQEVTLRCKPISGHDYLFWYRQTMMRGLELLIYFNNNVPIDDSGMPEDRFSAKMPNASFSTLKIQPSEPRDSAVYFCASSRLGPYNEQFFGPGTRLTVL
B11: A11 KRAS TCR_129_2 (TCR, V domains shown)
Valpha: SQQGEEDPQALSIQEGENATMNCSYKTSINNLQWYRQNSGRGLVHLILIRSNEREKHSGRLRVTLDTSKKSSSLLITASRAADTASYFCASSGGGADGLTFGKGTHLIIQP
Vbeta: KAGVTQTPRYLIKTRGQQVTLSCSPISGHRSVSWYQQTPGQGLQFLFEYFSETQRNKGNFPGRFSGRQFSNSRSEMNVSTLELGDSALYLCASSLGGAGETQYFGPGTRLLVL
B12: TCR19 (TCR, V domains shown)
Valpha: DQQVKQNSPSLSVQEGRISILNCDYTNSMFDYFLWYKKYPAEGPTFLISISSIKDKNEDGRFTVFLNKSAKHLSLHIVPSQPGDSAVYFCAASANNNDMRFGAGTRLTVKP
Vbeta: DAGVIQSPRHEVTEMGQEVTLRCKPISGHDYLFWYRQTMMRGLELLIYFNNNVPIDDSGMPEDRFSAKMPNASFSTLKIQPSEPRDSAVYFCASSPTGGGMLGQYFGPGTRLTVL
B13: A11 KRAS TCR_129_8 (TCR, V domains shown)
Valpha: B12 Valpha with S93N, A94T, N96A, N97G, D98K, M99S, R100T, A103D, R106T
Vbeta: DTGVSQDPRHKITKRGQNVTFRCDPISEHNRLYWYRQTLGQGPEFLTYFQNEAQLEKSRLLSDRFSAERPKGSFSTLEIQRTEQGDSAMYLCASSTGTAEQYFGPGTRLTVT
B14: TCR18 (TCR, V domains shown)
Valpha: SQQGEEDPQALSIQEGENATMNCSYKTSINNLQWYRQNSGRGLVHLILIRSNEREKHSGRLRVTLDTSKKSSSLLITASRAADTASYFCATDEGGGADGLTFGKGTHLIIQP
Vbeta: DSGVTQTPKHLITATGQRVTLRCSPRSGDLSVYWYQQSLDQGLQFLIQYYNGEERAKGNILERFSAQQFPDLHSELNLSSLELGDSALYFCASSVTWGPYEQYFGPGTRLTVT
B15: A11 KRAS TCR_141_6 (TCR, V domains shown)
Valpha: B14 Valpha with E93V, G94F, G95Q, D98Q, G99K, T101V, K104Q, H107R, I109T, Q111N
Vbeta: EAGVAQSPRYKIIEKRQSVAFWCNPISGHATLYWYQQILGQGPKLLIQFQNNGVVDDSQLPKDRFSAERLKGVDSTLKIQPAKLEDSAVYLCASSIETSYEQYFGPGTRLTVT
B16: TCR14 (TCR, V domains shown)
Valpha: B14 Valpha
Vbeta: DSGVTQTPKHLITATGQRVTLRCSPRSGDLSVYWYQQSLDQGLQFLIQYYNGEERAKGNILERFSAQQFPDLHSELNLSSLELGDSALYFCASTHGRDSTDTQYFGPGTRLTVL
B17: A11 KRAS TCR_141_7 (TCR, V domains shown)
Valpha: AQSVTQPDIHITVSEGASLELRCNYSYGATPYLFWYVQSPGQGLQLLLKYFSGDTLVQGIKGFEAEFKRSQSSFNLRKPSVHWSDAAEYFCAVTGGGNKLTFGTGTQLKVEL
Vbeta: DTGVSQDPRHKITKRGQNVTFRCDPISEHNRLYWYRQTLGQGPEFLTYFQNEAQLEKSRLLSDRFSAERPKGSFSTLEIQRTEQGDSAMYLCASSLAGETGELFFGEGSRLTVL
B18: A11 KRAS TCR_141_1 (TCR, V domains shown)
Valpha: AQTVTQSQPEMSVQEAETVTLSCTYDTSESDYYLFWYKQPPSRQMILVIRQEAYKQQNATENRFSVNFQKAAKSFSLKISDSQLGDAAMYFCALKTSYDKVIFGPGTSLSVIP
Vbeta: NAGVTQTPKFQVLKTGQSMTLQCAQDMNHEYMSWYRQDPGMGLRLIHYSVGAGITDQGEVPNGYNVSRSTTEDFPLRLLSAAPSQTSVYFCASSLGAGEWKSPLHFGNGTRLTVT

Tests used:
[1] = molecular target: T1, KRAS G12V (same sequence in NRAS and HRAS G12V) peptide on HLA-A*11:01 (human); experiment: cytokine release
T1 peptide: VVVGAVGVGK

[2] = molecular target: T2, KRAS G12V (same sequence in NRAS and HRAS G12V) peptide on HLA-A*11:01 (human); experiment: cytokine release
T2 peptide: VVGAVGVGK

[3] = molecular target: T3, KRAS G12D (same sequence in NRAS and HRAS G12D) peptide on HLA-A*11:01 (human); experiment: cytokine release
T3 peptide: VVGADGVGK

[4] = molecular target: T4, KRAS G12D (same sequence in NRAS and HRAS G12D) peptide on HLA-A*11:01 (human); experiment: cytokine release
T4 peptide: VVVGADGVGK

[5] = molecular target: T5, KRAS G12V peptide on HLA-A*02:01 (human); experiment: multimer staining
T5 peptide: KLVVVGAVGV

Row | Binder | binding result [1] | binding result [2] | binding result [3] | binding result [4] | binding result [5]
1 | B1 | recognises | recognises | no recognition | no recognition | 
2 | B2 | recognises | no recognition | no recognition | no recognition | 
3 | B3 | no recognition | no recognition | no recognition | recognises | 
4 | B4 | no recognition | no recognition | no recognition | recognises | 
5 | B5 | no recognition | no recognition | no recognition | recognises | 
6 | B6 |  |  |  |  | recognises
7 | B7 | recognises |  | no recognition | no recognition | 
8 | B8 | recognises | no recognition | no recognition | no recognition | 
9 | B9 | no recognition | no recognition | no recognition | recognises | 
10 | B10 | no recognition | no recognition | no recognition | recognises | 
11 | B11 |  |  |  | recognises | 
12 | B12 |  | recognises | no recognition | no recognition | 
13 | B13 | recognises | recognises |  |  | 
14 | B14 | no recognition | no recognition | no recognition | no recognition | 
15 | B15 | recognises | recognises |  |  | 
16 | B16 | no recognition | recognises | no recognition | no recognition | 
17 | B17 |  |  |  | recognises | 
18 | B18 | no recognition | no recognition | no recognition | recognises | 
